According to a protein production outcome set (Wang et al. 2014):
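Further: failed if final PepcDB status was selected cloned or expressed and not failed if soluble or beyond.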

Assay: label from the status in PepcDB records
For “MEIKRFGRIREVIPLPPLTEIQVESYRRALQADVPPEKRENVGIQAAFRETFPIEEEDKGKGGLVLDFLEYRLGEPPFPQDECREKDLTYQAPLYARLQLIHKDTGLIKEDEVFLGHIPLMTEDGSFIINGADRVIVSQIHRSPGVYFTPDPARPGRYIASIIPLPKRGPWIDLEVEPNGVVSMKVNKRKFPLVLLLRVLGYDQETLARELGAYGELVQGLMDESVFAMRPEEALIRLFTLLRPGDPPKRDKAVAYVYGLIADPRRYDLGEAGRYKAEEKLGIRLSGRTLARFEDGEFKDEVFLPTLRYLFALTAGVPGHEVDDIDHLGNRRIRTVGELMTDQFRVGLARLARGVRERMLMGSEDSLTPAKLVNSRPLEAAIREFFSRSQLSQFKDETNPLSSLRHKRRISALGPGGLTRERAGFDVRDVHRTHYGRICPVETPEGANIGLITSLAAYARVDELGFIRTPYRRVVGGVVTDEVVYMTATEEDRYTIAQANTPLEGNRIAAERVVARRKGEPVIVSPEEVEFMDVSPKQVFSVNTNLIPFLEHDDANRALMGSNMQTQAVPLIRAQAPVVMTGLEERVVRDSLAALYAEEDGEVAKVDGNRIVVRYEDGRLVEYPLRRFYRSNQGTALDQRPRVVVGQRVRKGDLLADGPASENGFLALGQNVLVAIMPFDGYNFEDAIVISEELLKRDFYTSIHIERYEIEARDTKLGPERITRDIPHLSEAALRDLDEEGVVRIGAEVKPGDILVGRTSFKGESEPTPEERLLRSIFGEKARDVKDTSLRVPPGEGGIVVRTVRLRRGDPGVELKPGVREVVRVYVAQKRKLQVGDKLANRHGNKGVVAKILPVEDMPHLPDGTPVDVILNPLGVPSRMNLGQILETHLGLAGYFLGQRYISPIFDGAKEPEIKELLAQAFEVYFGKRKGEGFGVDKREVEVLRRAEKLGLVTPGKTPEEQLKELFLQGKVVLYDGRTGEPIEGPIVVGQMFIMKLYHMVEDKMHARSTGPYSLITQQPLGGKAQFGGQRFGEMEVWALEAYGAAHTLQEMLTLKSDDIEGRNAAYEAIIKGEDVPEPSVPESFRVLVKELQALALDVQTLDEKDNPVDIFEGLASKR”, the protein production was “not failed”.
For “MEIKSILIANRGEIALRALRTIKEMGKKAICVYSEADKDALYLKYADASICIGKARSSESYLNIPAIIAAAEIAEADAIFPGYGFLSENQNFVEICAKHNIKFIGPSVEAMNLMSDKSKAKQVMQRAGVPVIPGSDGALAGAEAAKKLAKEIGYPVILKAAAGGGGRGMRVVENEKDLEKAYWSAESEAMTAFGDGTMYMEKYIQNPRHIEVQVIGDSFGNVIHVGERDCSMQRRHQKLIEESPAILLDEKTRTRLHETAIKAAKAIGYEGAGTFEFLVDKNLDFYFIEMNTRLQVEHCVSEMVSGIDIIEQMIKVAEGYALPSQESIKLNGHSIECRITAEDSKTFLPSPGKITKYIPPAGRNVRMESHCYQDYSVPAYYDSMIGKLVVWAEDRNKAIAKMKVALDELLISGIKTTKDFHLSMMENPDFINNNYDTNYLARH”, the protein production was “not failed”.
In the case of “MEISLLQAFALGIIAFIAGLDMFNGLTHMHRPVVLGPLVGLVLGDLHTGILTGDTLELVWMGLAPLAGAQPPNVIIGTIVGTAFAITTGVKPDVAVGVAVPFAVAVQMGITFLFSVMSGVMSRCDRMAENADTRGIERVNYLALLALGTFYFLCAFLPIYFGAEHAKTIIDVLPQRLIDGLGVAGGIMPAIGFAVLLKIMMKNVYIPYFILGFVAATWLKLPVLAIAAAALAMALIDLLRKSPEPTQPAAQKEEFEDGI”, the protein production is reported as “failed”.
In the case of “MEISRGDFEQAYQNERNRMQAQLGDYFSNLLADPTYVASFRKSVLDRMVNDLLLEQHAASLGLRVSDEQVRQLILEIPQFQSQGVFDSTAYQATLRRAGFTPEMYAEYLRKDLVRNQLMSALQGSEFSLAGEVNLQDQLISQTRDIRTITLSLEDFAKKVTLSDEEIDQYYKTNTERFTRPEQVKVSYVELSADGLKAQVSVDDAAAQQYYQEHLDKYSTAEQRNVSHILIEGNDEQKAQAILDELNAGADFATLAKEKSQDLGSAAEGGSLGWIEPDTMDPAFEAAAFALTEKGQVSGLVKSDFGYHIIRLDDIKAPVVKPYSEVEQAIKQELIDQQALDSFYAKQSELEKMAFEHSDSLDEAAKAISATVVHTDFISAEQAPEVLTTPAVLQALKSPEVKEDGLNSEVIEVAPEHVVVVRVEEFRPETVLPLDEVKSQVVEQLSRMKGEQQALELGNQLVTALKAGETDLLAQKGVSFGELQMIDRSSPLANTVYAMVKPQEGEKVYAQAKDFDGNIVVIELSKVESKLTPAYHEQIATQLERIGSQQDLAGVISVLRQNTDIEYHIATELEHHHHHH”, the protein production is reported as “not failed”.
In the case of “MEITDPGDFRQRIETSFARQGVVQAINAEISRIEHRLVEIELPFHEKLTQQHGILHAGVIAAGLDTACTYAAYTIIEPEASLLTIEFKVNLMSPGRGERFLFRGEIIKPGNNLIVADGRAYALSDGPAKLIASMTGTMMVVKGLEHHHHHH”, the protein production is reported as “not failed”.
In the case of “MEKANIGFKAGIIFEKLGETGLITIAELARRLNFAADETALAAGWLARENKIYIERRNGLLYIRKELEHHHHHH”, the protein production is reported as “failed”.
In the case of “MEKAVHSSTTSGPAVPGETTKTGTSIIDTAASAVQSFAPVNQIHQHLCAFHFYADDMARQVEAHHFCSHVNEEMRQCLIYDGPDANARLIGLEYIVSEKLFMTLPDEEKKLWHSHEWEVKGGFLFMPGVPGAIQRKDLDKVAKTYGKVFHFWQVDLGHELPIGLPNVMMAVTRDGQLFHEMIQEAEKRFGVSVEGERDSRAYMSGPELGIHPLANGGGKGMKLELREVDIKPVESVGSVFV”, the protein production is reported as “failed”.
For “MEKHSHEHHHHHDISSISKNKLFFVIIFNFIIALAEVIGGSISGSLSLISDALHNLSDTASLILSYVSIKISEKPKNKAKTYGYKRANILAAFINSAALIGISIFLGVQALEKLTSLKKINANIVIVVALIGLLGNFLSVIILKKGAEKSLNVRSSYLHMLSDAMASLAVIISGVFIKYFAIYWIDSVLTIFINMLILKSSYNILKESINILMQTTPVNLDMDDVKEQLLKIKEIKGVHHFHIWTLDENNIVLEGHIEIDDILVSETRAISDKIEHILNEDFHITHVVIQFESTSCEDNICKI”, the protein production was “failed”.
For “MEKIEDQFASLHIVRRSSEPKEPTYLLGIDTSKTVQADKGGLVAVLCSNGSIRIYDKETLHLLREFGGSPGLLSGVSFANSCDSVYSASTDGTVKCWDARGASEKPVQLFKGYPSCSFISFDVNCKDHVICAGAEKVDEDALLVFWDARFTSQDLSTRDPLGAYSETHSDDITQVRFHPSNPNLVVSGSTDGLVNVFDLSADKEEDALVATCNSVSSVSCIGWCGKDYKQIYCMTHDEGFCWWDLNHLDTDEPITCLNIQDVREITDVKDGHLDYLIGGLYHEKMDRLFVIGGTNTGKIHLLSCTSAGLTHVTSLHGGHAATVRSFCWNVSEDSLLTGGEDAQLLLWKPGAMEKTFTKKDSLKIASSVQQRVRVHSSDSYKKRKQQ”, the protein production was “failed”.
In the case of “MEKILLERNWQDLEKLVLVSSKKAIRTLVNRIYIKDGLGFWRAVEALGVASALAEEQKKDSSVELVRRYFWSLNEESGGNAWNAAEAIGSIMASNPKECGHFNWMLANLLEDESLQEGTLWGLLNLSINAPEVVDPLVERVYPFLEARDVNQRGLAVWIFSLMKACPSAKERWEIEEELHKTLIQDQEMAEIYWEGEYYHFPVSELLGKEIVTFYAREYKQADFTWNISVASSQKGLCWVGLGTPEKEEGELRTWVQKRVPGSLVIPRALPNQKVMEQLEDYFSGIRQEFNLPLDPRGTDFQLKVWEELCRIPYGETRSYGEIAQNIGNPKGQRAVGLANNKNPIAIIIPCHRVVGKKGDLVGYASGLDHKVRLLNWEAAHRHQ”, the protein production is reported as “failed”.
For “MEKKFLDILVCPVTKGRLEYHQDKQELWSRQAKLAYPIKDGIPYMLENEARALSEEELKALEHHHHHH”, the protein production was “not failed”.
With “MEKLSAREKPDINVAEAWEQYWNKTLVNATPVLWDANVERAVVVDLPRFQSFFDTELPLIDFACGNGTQTKFLSQFFPRVIGFDVSKTALEMASKENTAANISYRLLDGLVPEQAAQIHSEIGDANIYMRTGFHHIPVEKRELLAQSLRTLLGKQGVMYLIELGTGCIEFFNSLLEKYGKLPYELSLVMEHGIRPGIFTTEDIELYFPDFEILSQGESLFQSIHKLPDGNYATPPAFWAVIKRH” the protein production was “failed”.
In the case of “MEKNRRGIQSVELGSRVLQALAQFGRPAGLTELAQECDMPPGKVHPYLVSFMKVGFVARDPASGLYELGHLALELGLAKLHRLDPVREASQAIADLAAETGHGTGLVVWGNLGPTLIRLEEPAHPLHVNLRIGTVMSLVHTATGRLFAAYLPAKVVSRVLEADPMGVHFGSRHQSRPAQEDYERQLSEIRSRGISRTLGSPIPGIDAFCAPVFDSMGHIAAGLLVMGPSATFDSDWDGQIATRLHACANDISRKLGYIDTPASPRAAR”, the protein production is reported as “failed”.
